Reference: publication PMC3531502 (PLoS Biology, 2012)

B2: HET-S (full-length, residues 1-289) (natural protein, Podospora anserina, UniProt B2ACC7 1-289, looked up)
chain: MSEPFEIVAGALGVAGLFNNCVACFEYVQLGRHFGRDYERCQLRLDIAKVRLSRWGEAVQINDDPRFHSSAPIDKSVQLAKSIVEEILLLFESAQKTSKRYELVADQQDLVVFEDKDMKPIGRALHRRLKDLVSRRQKQTSLAKKTAWALYDGKSLEKIVDQVAGFVDELEKAFPIEAVCHKLAENEIEEVEDEASLTILKDAAGGIDAAMSDAAAQKIDAIVGRNSAKDIRTEKRARVQLGNVVTAAALHGEIRISDQTTNSVETVVGKGESKVLIGNEYGGKGFWDN
notes: also called HET-S protein; recombinant HET-S

Experiments:
[1] = biological target: B2; assay: solid-state NMR (PAIN 13C-15N pol); conditions: both partners purified
[2] = biological target: the molecule itself; assay: solid-state NMR (PAIN 13C-15N pol)
[3] = biological target: the molecule itself; assay: solid-state NMR (NCA 2D and 3D co)
[4] = biological target: T1, HET-s (full-length) (Podospora anserina, UniProt Q03689 1-289); assay: solid-state NMR (NCA 2D and 3D co); conditions: both partners purified
T1 construct: also called unlabeled monomeric full-length HET-s; HET-s prion
T1 sequence (looked up): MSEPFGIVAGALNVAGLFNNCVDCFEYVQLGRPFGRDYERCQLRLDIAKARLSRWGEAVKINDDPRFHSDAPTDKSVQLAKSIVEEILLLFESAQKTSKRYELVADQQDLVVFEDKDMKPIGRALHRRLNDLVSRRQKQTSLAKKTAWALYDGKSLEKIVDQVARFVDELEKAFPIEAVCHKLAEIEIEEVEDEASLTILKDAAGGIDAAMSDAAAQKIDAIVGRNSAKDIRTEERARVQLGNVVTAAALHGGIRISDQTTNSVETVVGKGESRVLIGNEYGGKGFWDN

B1: HET-s(218-289), prion-forming domain of HET-s (domain or fragment, Podospora anserina, UniProt Q03689 218-289, looked up)
chain: KIDAIVGRNSAKDIRTEERARVQLGNVVTAAALHGGIRISDQTTNSVETVVGKGESRVLIGNEYGGKGFWDN
notes: also called HET-s PFD; HET-s(218-289) amyloid seeds
binding result [1]: binds | binding result [2]: binds

B2
binding result [3]: binds | binding result [4]: binds
